Laboratory results taken from US20230295324A1 (published 2023).
Positions count from the first letter of the chain named.

B1: PR002061 (antibody, human IgG1, V domains shown)
VH: EVQLLESGGGLVQPGGSLRLSCAASGFTFSSYAMSWVRQAPGKGLEWVSAISGRGGSTYYADSVRGRFTISRDNSKNTLYLQMNSLRAEDTAVYYCANGMTGTTDVDYWGQGTLVTVSS
notes: no light chain; also called anti-OX40 HCAb antibody
B2: PR002059 (antibody, human IgG1, V domains shown)
VH: B1 VH with A23V, A24V, F27L, L45R, Y59F, T103S
notes: as for B1
B3: PR002069 (antibody, human IgG1, V domains shown)
VH: B1 VH with L45R, R54G, S57N, Y59F, M100V
notes: as for B1
B4: PR002075 (antibody, human IgG1, V domains shown)
VH: B1 VH with L5V, S7T, V12I, R54S, S57N, M100I, L114R
notes: as for B1
B5: PR002062 (antibody, human IgG1, V domains shown)
VH: B1 VH with L45Q, R54S, Y59F, N84S
notes: as for B1
B6: PR002068 (antibody, human IgG1, V domains shown)
VH: B1 VH with T28S, S35T, R54G, T58I, Y59F, T103S, L114Q
notes: as for B1
B7: PR002056 (antibody, human IgG1, V domains shown)
VH: B1 VH with R54G, T58I, Y59F
notes: as for B1
B8: PR002057 (antibody, human IgG1, V domains shown)
VH: B1 VH with T28I, R54G, Y59F, N98D
notes: as for B1
B9: PR002064 (antibody, human IgG1, V domains shown)
VH: B1 VH with L5V, S7T, L45Q, R54S, Y59F, N84S
notes: as for B1
B10: PR002060 (antibody, human IgG1, V domains shown)
VH: B1 VH with S31D, N84T
notes: as for B1
B11: PR002070 (antibody, human IgG1, V domains shown)
VH: B1 VH with A23I, T28S, Y59F, T69N, A88V
notes: as for B1

Target: T1, cynomolgus monkey OX40 protein (Novoprotein, #CB17) (cynomolgus monkey)
T1 construct: Bought recombinant protein; also called cyno OX40
Assay: ELISA, coated cyno OX40 protein
Experimental: (§1) This example is intended to investigate the in vitro binding activity of the anti-OX40 HCAb monoclonal antibodies prepared in Example 1 to human and cynomolgus monkey OX40 proteins. The antibody binding assay at the protein level was performed using a human OX40 protein (Acro biosystem, #OX0-H5224) and a cynomolgus monkey OX40 protein (Novoprotein, #CB17). Briefly, a 384-well plate (PerkinElmer, #6007509) was coated with 1 μg/mL human OX40 protein and a cynomolgus monkey OX40 protein dissolved in PBS at 20 μL/well, and incubated at 4° C. overnight. The next day, the 384-well plate was washed three times with PBS containing 0.05% Tween (MEDICAGO, #09-9410-100), and blocked with PBS containing 2% milk (Bio-Rad, #170-6404) at 37° C. for 1 h. […] The plate was added with a stop buffer (BBI life sciences, #E661006-0200) at 20 μL/well, and read for OD₄₅₀₋₆₅₀ values using a plate reader (Molecular Devices, model: SpectraMax Plus). The values were analyzed with Graphad 8.0 and plotted.

| Binder | EC50 | Maximum OD |
| --- | --- | --- |
| B1 | 0.152 nM | 1.87 OD |
| B2 | 0.0774 nM | 1.9 OD |
| B3 | 0.129 nM | 2.24 OD |
| B4 | 0.415 nM | 3.07 OD |
| B5 | 0.126 nM | 1.81 OD |
| B6 | 0.253 nM | 2.38 OD |
| B7 | 0.0682 nM | 1.69 OD |
| B8 | 0.133 nM | 1.76 OD |
| B9 | 0.218 nM | 2.08 OD |
| B10 | 0.0938 nM | 1.94 OD |
| B11 | 0.132 nM | 2.51 OD |

Target: T2, human OX40 on cells (CHO-K1/hu OX40) (human, UniProt P43489 29-277)
T2 construct: whole, on cells; Also used here for OX40 on the HEK293/OX40/NF-kb reporter cells and on human T cells in the functional assays; also called CHO-K1/OX40; human OX40 cells
T2 sequence (looked up): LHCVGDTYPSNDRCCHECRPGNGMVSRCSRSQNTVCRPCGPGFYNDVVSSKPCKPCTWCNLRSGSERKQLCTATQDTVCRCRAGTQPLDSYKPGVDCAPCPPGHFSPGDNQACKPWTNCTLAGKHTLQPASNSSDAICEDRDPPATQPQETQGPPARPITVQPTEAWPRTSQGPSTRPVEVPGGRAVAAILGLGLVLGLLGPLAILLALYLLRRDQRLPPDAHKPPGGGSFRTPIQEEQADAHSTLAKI
Assay: FACS, CHO-K1/hu OX40 cells
Experimental: This example is intended to investigate the in vitro binding activity of anti-human OX40 HCAb monoclonal antibodies to human OX40. The antibody binding assay at the cellular level was performed using a stable CHO-K1 cell strain overexpressing human OX40 (CHO-K1/hu OX40). Briefly, the CHO-K1/hu OX40 cells were digested, resuspended in an F12K complete medium and washed once with PBS. The cell density was adjusted to 1×10⁶ cells/mL with PBS. The cells were seeded in a 96-well V-bottom plate (Corning, #3894) at 100 μL/well, and centrifuged, and then the supernatant was discarded. Then, the test antibodies diluted in a 3-fold gradient at concentrations that were 2 times the final concentrations were added at 100 μL/well. The cells were incubated at 4° C. for 1 h away from light. Thereafter, the cells in each well were rinsed twice with 100 μL of pre-cooled PBS, and centrifuged at 500 g at 4° C. for 5 min, and then the supernatant was discarded. […] The plate was incubated away from light at 4° C. for 30 min. The cells in each well were rinsed twice with 100 μL of pre-cooled PBS, and centrifuged at 500 g at 4° C. for 5 min, and then the supernatant was discarded. Finally, the cells in each well were resuspended in 200 μL of pre-cooled PBS, and the fluorescence signal values were read using a BD FACS CANTOII.

| Binder | EC50 | Maximum MFI |
| --- | --- | --- |
| B1 | 10.9 nM | 1740 MFI |
| B2 | 1.35 nM | 3630 MFI |
| B3 | 4.43 nM | 2990 MFI |
| B5 | 37.9 nM | 1900 MFI |
| B6 | 10.1 nM | 2130 MFI |
| B7 | 3.12 nM | 2930 MFI |
| B8 | 12.8 nM | 1670 MFI |
| B9 | 22.4 nM | 1570 MFI |
| B10 | 8.95 nM | 1860 MFI |
| B11 | 4.39 nM | 2530 MFI |

Target: T2, human OX40 on cells (CHO-K1/hu OX40)
Assay: cell-based or functional assay

| Binder | EC50, HEK293/OX40/NF-kb luciferase reporter | Maximum fluorescence signal value, HEK293/OX40/NF-kb luciferase reporter |
| --- | --- | --- |
| B1 | 23.2 nM | 156000 luminescence |
| B2 | 1.83 nM | 117000 luminescence |
| B3 | 6.27 nM | 99700 luminescence |
| B5 | 25.2 nM | 149000 luminescence |
| B6 | 22.9 nM | 139000 luminescence |
| B7 | 4.89 nM | 154000 luminescence |
| B8 | 14.3 nM | 172000 luminescence |
| B9 | 30.3 nM | 147000 luminescence |
| B10 | 15.1 nM | 132000 luminescence |
| B11 | 7.6 nM | 129000 luminescence |

Target: T3, human OX40 protein (Acro biosystem, #OX0-H5224) (human, UniProt P43489 29-216)
T3 construct: Bought recombinant protein
T3 sequence (looked up): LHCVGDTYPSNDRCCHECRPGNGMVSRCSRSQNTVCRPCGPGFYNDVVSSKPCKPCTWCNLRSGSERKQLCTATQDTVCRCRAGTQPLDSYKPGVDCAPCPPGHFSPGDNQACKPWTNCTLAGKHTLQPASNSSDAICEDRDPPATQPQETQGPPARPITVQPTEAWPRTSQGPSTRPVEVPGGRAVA
Assay: ELISA, coated human OX40 protein
Experimental: as §1

| Binder | EC50 | Maximum OD |
| --- | --- | --- |
| B1 | 0.134 nM | 1.96 OD |
| B2 | 0.0695 nM | 2 OD |
| B3 | 0.051 nM | 2.24 OD |
| B4 | 0.0618 nM | 2.48 OD |
| B5 | 0.103 nM | 1.94 OD |
| B6 | 0.092 nM | 2.42 OD |
| B7 | 0.057 nM | 1.71 OD |
| B8 | 0.124 nM | 1.76 OD |
| B9 | 0.0814 nM | 2.28 OD |
| B10 | 0.0828 nM | 2.09 OD |
| B11 | 0.0729 nM | 2.4 OD |

Target: T2, human OX40 on cells (CHO-K1/hu OX40)
Assay: FACS, blocking of biotin-human OX40L on CHO-K1/hu OX40 cells
Experimental: Briefly, the CHO-K1/hu OX40 cells were digested and resuspended in an F-12K complete medium, and the cell density was adjusted to 1×10⁶ cells/mL. The cells were seeded in a 96-well V-bottom plate (Corning, #3894) at 100 μL/well, and centrifuged, and then the supernatant was discarded. The test antigen-binding proteins diluted in a 3-fold gradient at concentrations that were 2 times the final concentrations were added at 100 μL/well, and the mixture was well mixed, wherein the antigen-binding protein had the highest final concentration of 100 nM, and a total of 8 concentrations were obtained. […] The cells were incubated at 4° C. for 1 h away from light. Thereafter, the cells were centrifuged at 4° C. for 5 min, and then the supernatant was discarded. […] The cells in each well were rinsed twice with 100 μL of pre-cooled PBS, and centrifuged at 500 g at 4° C. for 5 min, and then the supernatant was discarded. A 1:200 fluorescent secondary antibody PE Streptavidin (BD Biosciences, #554061) was added at 100 μL/well, and the cells were incubated away from light at 4° C. for 30 min. The cells in each well were rinsed twice with 200 μL of pre-cooled PBS, and centrifuged at 500 g at 4° C. for 5 min, and then the supernatant was discarded. Finally, the cells in each well were resuspended in 200 μL of precooled PBS. Fluorescence signal values were read using BD FACS CANTOII, and IC50 was calculated. Inhibition rate %={average MFI of non-blocking control well−MFI value of OX40 antibody}/{(average MFI of non-blocking control well)−average MFI of 100% blocking control well)}×100%.

| Binder | Maximum inhibition rate (%) | IC50 |
| --- | --- | --- |
| B1 | 16% |  |
| B2 | 79% | 15.9 nM |
| B3 | 53% | 50.9 nM |
| B5 | 13% |  |
| B6 | 25% | 23.1 nM |
| B7 | 34% | 43.7 nM |
| B8 | 12% |  |
| B9 | 20% |  |
| B10 | 12% |  |
| B11 | 46% | 67.6 nM |
